From the supplement of paper PMC11246515
± gives the standard deviation of the averaged measurements.

Experiment: total protein half-life in vivo (active degradation + dilution); higher = more stable protein
[1] = E. coli NCM3722 delta-clpP delta-lon delta-hslV, growth: N-lim chemostat, doubling time 6 h
[2] = E. coli NCM3722 delta-clpP, growth: N-lim chemostat, doubling time 6 h
[3] = E. coli NCM3722 delta-hslV, growth: N-lim chemostat, doubling time 6 h
[4] = E. coli NCM3722 delta-lon, growth: N-lim chemostat, doubling time 6 h
[5] = E. coli NCM3722 delta-smpB, growth: N-lim chemostat, doubling time 6 h
[6] = wild type E. coli NCM3722, growth: C-lim chemostat, doubling time 3 h
[7] = wild type E. coli NCM3722, growth: C-lim chemostat, doubling time 6 h
[8] = wild type E. coli NCM3722, growth: C-lim chemostat, doubling time 12 h
[9] = wild type E. coli NCM3722, growth: N-lim chemostat, doubling time 6 h
[10] = wild type E. coli NCM3722, growth: N-lim chemostat, doubling time 12 h
[11] = wild type E. coli NCM3722, growth: P-lim chemostat, doubling time 6 h
[12] = wild type E. coli NCM3722, growth: P-lim chemostat, doubling time 12 h

Sequence	total protein half-life in vivo [1] [h]	total protein half-life in vivo [2] [h]	total protein half-life in vivo [3] [h]	total protein half-life in vivo [4] [h]	total protein half-life in vivo [5] [h]	total protein half-life in vivo [6] [h]	total protein half-life in vivo [7] [h]	total protein half-life in vivo [8] [h]	total protein half-life in vivo [9] [h]	total protein half-life in vivo [10] [h]	total protein half-life in vivo [11] [h]	total protein half-life in vivo [12] [h]
MTLDLPRRFPWPTLLSVCIHGAVVAGLLYTSVHQVIELPAPAQPISVTMVTPADLEPPQAVQPPPEPVVEPEPEPEPIPEPPKEAPVVIEKPKPKPKPKPKPVKKVQEQPKRDVKPVESRPASPFENTAPARLTSSTATAATSKPVTSVASGPRALSRNQPQYPARAQALRIEGQVKVKFDVTPDGRVDNVQILSAKPANMFEREVKNAMRRWRYEPGKPGSGIVVNILFKINGTTEIQ	3.05 ± 0.064	3.18 ± 0.081	2.27 ± 0.21	1.79 ± 0.029	2.92 ± 1.7	1.93 ± 0.35	3.6 ± 0.45	5.81 ± 0.11	2.33 ± 0.17	3.29 ± 0.16	3.17 ± 0.13	6.09 ± 0.82
MTLLASLRDWLKAQQLDAVLLSSRQNKQPHLGISTGSGYVVISRESAHILVDSRYYVEVEARAQGYQLHLLDATNTLTTIVNQIIADEQLQTLGFEGQQVSWETAHRWQSELNAKLVSATPDVLRQIKTPEEVEKIRLACGIADRGAEHIRRFIQAGMSEREIAAELEWFMRQQGAEKASFDTIVASGWRGALPHGKASDKIVAAGEFVTLDFGALYQGYCSDMTRTLLVNGEGVSAESHLLFNVYQIVLQAQLAAISAIRPGVRCQQVDDAARRVITEAGYGDYFGHNTGHAIGIEVHEDPRFSPRDTTTLQPGMLLTVEPGIYLPGQGGVRIEDVVLVTPQGAEVLYAMPKTVLLTGEA	6.04	–	–	–	–	–	–	3.72	–	–	–	–
MTLPKIKQVRAWFTGGATAEKGAGGGDYHDQGANHWIDDHIATPMSKYRDYEQSRQSFGINVLGTLVVEVEAENGQTGFAVSTAGEMGCFIVEKHLNRFIEGKCVSDIKLIHDQMLSATLYYSGSGGLVMNTISCVDLALWDLFGKVVGLPVYKLLGGAVRDEIQFYATGARPDLAKEMGFIGGKMPTHWGPHDGDAGIRKDAAMVADMREKCGEDFWLMLDCWMSQDVNYATKLAHACAPYNLKWIEECLPPQQYESYRELKRNAPVGMMVTSGEHHGTLQSFRTLSETGIDIMQPDVGWCGGLTTLVEIAAIAKSRGQLVVPHGSSVYSHHAVITFTNTPFSEFLMTSPDCSTMRPQFDPILLNEPVPVNGRIHKSVLDKPGFGVELNRDCNLKRPYSH	–	–	–	–	–	2.53 ± 0.29	3.97 ± 0.25	7.51 ± 1.1	> 8	–	–	9.69
MTLQQQIIKALGAKPQINAEEEIRRSVDFLKSYLQTYPFIKSLVLGISGGQDSTLAGKLCQMAINELRLETGNESLQFIAVRLPYGVQADEQDCQDAIAFIQPDRVLTVNIKGAVLASEQALREAGIELSDFVRGNEKARERMKAQYSIAGMTSGVVVGTDHAAEAITGFFTKYGDGGTDINPLYRLNKRQGKQLLAALACPEHLYKKAPTADLEDDRPSLPDEVALGVTYDNIDDYLEGKNVPQQVARTIENWYLKTEHKRRPPITVFDDFWKK	4.93 ± 0.19	5.28 ± 1.6	4.91 ± 0.29	5.15 ± 0.71	4.58 ± 0.013	3.37 ± 0.64	6.28 ± 0.098	11.06 ± 0.038	4.67 ± 0.63	7.98 ± 0.17	5.737 ± 0.042	11.6 ± 0.31
MTLTASSSSRAVTNSPVVVALDYHNRDDALAFVDKIDPRDCRLKVGKEMFTLFGPQFVRELQQRGFDIFLDLKFHDIPNTAAHAVAAAADLGVWMVNVHASGGARMMTAAREALVPFGKDAPLLIAVTVLTSMEASDLVDLGMTLSPADYAERLAALTQKCGLDGVVCSAQEAVRFKQVFGQEFKLVTPGIRPQGSEAGDQRRIMTPEQALSAGVDYMVIGRPVTQSVDPAQTLKAINASLQRSA	5.11 ± 0.11	6.25 ± 2.3	4.479 ± 0.025	5.08 ± 0.2	4.77 ± 0.33	2.89 ± 0.2	6.45 ± 1	9.6 ± 0.32	4.77 ± 0.15	8.44 ± 1.3	5.08 ± 0.49	10.2 ± 0.27
MTMNSFERRNKIIQLVNEQGTVLVQDLAGVFAASEATIRADLRFLEQKGVVTRFHGGAAKIMSGNSETETQEVGFKERFQLASAPKNRIAQAAVKMIHEGMTDPTHVIWTQA	5.66 ± 0.27	5.64 ± 0.21	5.7 ± 0.13	5.59 ± 0.61	6.1 ± 0.52	2.9 ± 0.17	5.62 ± 0.3	12.4 ± 2.1	5.69 ± 0.26	11.3 ± 1.8	5.95 ± 0.17	11.5 ± 0.23
MTMSLEVFEKLEAKVQQAIDTITLLQMEIEELKEKNNSLSQEVQNAQHQREELERENNHLKEQQNGWQERLQALLGRMEEV [P0AF36]	7.42 ± 0.15	5.62 ± 0.36	3.23	4.06 ± 0.25	3.08 ± 0.33	2.8 ± 0.15	5.01 ± 0.5	8.02 ± 1.9	2.88 ± 0.047	5.13 ± 2.1	4.53	8.35 ± 0.092
